Data reported in US20200199217A1.
Numbering of substitutions follows the chain as printed.

T1: hu-IL-36β (human)
T1 sequence: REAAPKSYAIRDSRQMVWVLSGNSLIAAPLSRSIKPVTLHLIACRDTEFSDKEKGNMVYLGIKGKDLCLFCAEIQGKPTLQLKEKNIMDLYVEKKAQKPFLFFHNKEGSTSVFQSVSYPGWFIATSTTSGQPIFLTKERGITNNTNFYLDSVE

B1: mAb2.0 Fab (Fab, V domains shown)
VH: QLQLQESGPGLVKPSETLSLTCTVSGGSISTSSYYWGWIRQPPGKGLEWIGSIYYTGNTYYNPSLKSRVTISVDTSKNQFSLKLSSVTAADTAVYYCARVRYGVGVPRYFDPWGQGTLVTVSS
VL: QSVLTQPPSVSGAPGQRVTISCTGSSSNIGAHYDVHWYQQLPGTAPKLLIYGNDNRPSGVPDRFSGSKSGTSASLAITGLQAEDEADYYCQSYDYSLSGYVFGGGTKLTVL
B2: mAb3.0 Fab (Fab, V domains shown)
VH: B1 VH with T31S, S32T, Y54H, T56S, R101H, V104G, G105Y, V106I, Y109R, P112H
VL: B1 VL with H32G, D54T, S98R
B3: mAb4.0 Fab (Fab, V domains shown)
VH: QLQLQESGPGLVKPSETLSLTCTVSGGSIGSRSYYWGWIRQPPGKGLEWIGSIHYSGTTYYNPSLKSRVTISVDTSKNQFSLKLSSVTAADTAVYYCARVAPSYPRVFDYWGQGTLVTVSS
VL: B1 VL with H32G, D54R, S98R, G99V
B4: mAb5.0 Fab (Fab, V domains shown)
VH: EVQLLESGGGLVQPGGSLRLSCAASGFTFSTYAMSWVRQAPGKGLEWVSGISGGSGYTYYADSVKGRFTISRDNSKNTLYLQMNSLRAEDTAVYYCARVVTYRDPPASFDYWGQGTLVTVSS
VL: B1 VL with S98K, G99A
B5: mAb1.0 Fab (Fab, V domains shown)
VH: QVQLVESGGGVVQPGRSLRLSCAASGFSFSAYAMHWVRQAPGKGLEWVAVISYDGTNEYYADSVKGRFTISRDNSKNTLYLQMNSLRAEDTAVYYCARGIRIFTSYFDSWGQGTLVTVSS
VL: B1 VL with G52S, D54N, S98R
B6: mAb8.0 Fab (Fab, V domains shown)
VH: QVQLVQSGAEVKKPGSSVKVSCKASGGTFSNYAISWVRQAPGQGLEWMGGILPILGTVDYAQKFQGRVTITADESTSTAYMELSSLRSEDTAVYYCAREPWYRLGAFDVWGQGTLVTVSS
VL: DIQMTQSPSSLSASVGDRVTITCRASQTIYKYLNWYQQKPGKAPKLLIYAASSLQSGVPSRFSGSGSGTDFTLTISSLQPEDFATYYCQQYSSIPYTFGQGTKVEIK
B7: mAb7.0 Fab (Fab, V domains shown)
VH: QVQLVESGGGVVQPGRSLRLSCAASGFTFSSYGMHWVRQAPGKGLEWVAVISYGGSERYYADSVKGRFTISRDNSKNTLYLQMNSLRAEDTAVYYCAREPWYSSRGWTGYGFDVWGQGTLVTVSS
VL: EIVLTQSPGTLSLSPGERATLSCRASQSVSSNYLAWYQQKPGQAPKLLIYSASSLQSGVPSRFSGSGSGTDFTLTISSLQPEDFATYYCQQTYSYPPTFGQGTKVEIK
B8: mAb6.0 Fab (Fab, V domains shown)
VH: QLQLQESGPGLVKPSETLSLTCTVSGGSITSSNYYWGWIRQPPGKGLEWIGSIDYTGSTYYNPSLKSRVTISVDTSKNQFSLKLSSVTAADTAVYYCARGKYYETYLGFDVWGQGTLVTVSS
VL: B1 VL with H32G, D54T, Y95I, Y100W

molecular target: T1, hu-IL-36β (human); assay: ELISA, yeast Fab supernatant

ELISA OD450 [OD450] | Binder
0.0604 | B1
0.11 | B2
0.0513 | B3
0.129 | B4
0.0523 | B5

molecular target: hu-IL-36α (human) (UniProt Q9UHA7); assay: ELISA, yeast Fab supernatant
Sequence (Q9UHA7 6-158 limits assumed): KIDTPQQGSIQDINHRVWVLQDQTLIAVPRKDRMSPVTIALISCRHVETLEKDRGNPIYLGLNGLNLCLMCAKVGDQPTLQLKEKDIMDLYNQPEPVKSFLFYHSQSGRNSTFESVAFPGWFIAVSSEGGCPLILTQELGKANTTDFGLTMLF

ELISA OD450 [OD450] | Binder
0.0698 | B6
0.0604 | B7
0.0638 | B8

molecular target: hu-IL-36γ (human) (UniProt Q9NZH8); assay: ELISA, yeast Fab supernatant
Sequence (Q9NZH8 18-169 limits assumed): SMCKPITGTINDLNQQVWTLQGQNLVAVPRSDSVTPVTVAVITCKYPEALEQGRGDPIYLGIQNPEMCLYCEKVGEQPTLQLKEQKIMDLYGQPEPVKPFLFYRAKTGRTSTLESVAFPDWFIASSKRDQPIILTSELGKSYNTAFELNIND

ELISA OD450 [OD450] | Binder
0.073 | B6
0.0724 | B7
0.0656 | B8
